Assay: inhibition ELISA, anti-naloxone monoclonal antibodies against key opioids (FIG. 7)
Type: binding
Conditions: free drug 20 μg/mL, plates coated with ovalbumin conjugate
Excerpt: (§1) Mice with good anti-drug antibody titers and binding to free drug in the ELISA inhibition assays were selected to proceed with generation of monoclonal antibodies, in a similar manner to that described in U.S. Pat. No. 9,815,907 (issued to Sharma et al. on Nov. 14, 2017). In particular, mice with highest titers and best specificity were boosted three days prior to fusion. On the day of fusion, spleen cells were harvested from these mice and were fused with myeloma cell line P3X63Ag8.653 using PEG-assisted fusion protocols. After about ten days, hybridoma supernatants were screened for anti-naloxone and anti-naltrexone antibodies using a plate ELISA (direct binding and inhibition ELISA for specificity). Positive clones were further expanded and sub-cloned, and supernatants were purified using a Protein A SEPHAROSE® (GE Healthcare, Chicago, IL) column. Purified antibody samples were tested using ELISA for binding to the immunogen (i.e., a conjugate of drug-carrier protein) and to free opioids.
(§2) Antibody solution (Immune mouse bleeds or hybridoma clones supernatant or purified antibody) was screened using an inhibition ELISA procedure according to the following protocol. […] Plate coating was performed for 1 hour or more at room temperature or overnight at about 2° C. to 8° C. The plates were then flicked dry and blocked with 200 μL per well of blocking buffer solution (0.5% Casein solution in PBS containing 0.05% TWEEN® 20 surfactant (Croda International PLC, Snaith, United Kingdom). Plate blocking was performed by incubation for 30 minutes or more at room temperature with plate shaking. The plates were washed using a plate washer (BioTek®, Winooski, VT) with plate stacker with the washing buffer being MILLIQ® water (Millipore Corporation, Billerica, MA) containing 0.05% TWEEN® 20. The monoclonal antibody to be screened was then added to each well along with free drug as follows: 25 μL per well of appropriately diluted culture supernatant (or antibody solution) and added 25 μL of 20 μg/mL of free drug. Incubation was performed for about 1 hour at room temperature with plate shaking. The plate was washed. An enzyme conjugate (goat anti-mouse IgG coupled to HRP diluted in blocking buffer diluted to 1:3000) was added at 50 μL per well. Incubation was performed for about 1 hour at room temperature with shaking. The plate was then washed, and a chromogenic solution (TMB from Moss Substrates, Pasadena MD) was added at a volume of 100 μL per well. If a desired antibody was present in the hybridoma supernatant, then a decrease in optical density was observed compared to the well containing no free drug. The plates were read at 650 nm wavelength using an ELISA plate reader (Molecular Devices, San Jose, CA). Note: appropriate dilution of antibody solution was determined by performing a titration ELISA. The antibody dilution was chosen where around 1.0 optical density was observed.

Row | Molecule | specificity for naloxone over the other key opioids tested in the inhibition ELISA assay
1 | 179B 9G1.1: anti-naloxone monoclonal antibody generated using naloxone-3-Val-mcKLH; heavy chain SEQ ID NO:161, light chain SEQ ID NO:165 (antibody, Amino acid sequence of heavy chain of monoclonal antibody 179B 9G1.1; Amino acid sequence of light chain of monoclonal antibody 179B 9G1.1) heavy: MEWPCIFLFLLSVTEGVHSQVQLQQSGPELVKPGASVMISCKVFGDIFSSSWMNWVKQRPGKGLEWIGWICPGNGATKYNGKFKGKATLTADKSSGTGYMQLSSLTSEDSAVYFCELGRRDGYLDVWAGTTVTVSS light: MESQTQVFVYMLLWLSGVDGDIVMTQSQKFIFTSEGDRVSVTCKASQNVGTNIAWYQQKPGQSPKALIYSASNRYSGVPDRFTGSGSGTDFTLTFSNVQSEDLAEYFCLQYNNYPWTFGGGTKLEIK | good specificity for naloxone
2 | 179B 9E12: anti-naloxone monoclonal antibody generated using naloxone-3-Val-mcKLH; heavy chain SEQ ID NO:181, light chain SEQ ID NO:185 (antibody, V domains shown, Amino acid sequence of heavy chain of monoclonal antibody 179B 9E12; Amino acid sequence of light chain of monoclonal antibody 179B 9E12) VH: MGWSWIFLFLLSGTAGVHCQIQLQQSGPELVKPGASVKISCKASDYSFTNSYINWVKQRPGQGLEWIGWIYPGSTNTKYNEKFWDKATLTVDTSSNTAYMELRGLTSEDSAVYFCEMGTHYSYDVMDWGQGTSVTVSS VL: MEFQTQVFVFVLLWLSGVDGDIVMTPSQKFMSTSVGDRVSITCKASQNVRTSVGWYQQKPGQSPKPLIYATSNRHTGVPDRFTGSGSGTDFSLTITNVQSEDQADYFCLQHWNYPWTFGGGTKLEIK | good specificity for naloxone

Assay: inhibition ELISA, anti-naltrexone monoclonal antibodies against key opioids (FIG. 8)
Type: binding
Conditions: free drug 20 μg/mL, plates coated with ovalbumin conjugate
Excerpt: as §1, §2

Row | Molecule | specificity for naltrexone over the other key opioids tested in the inhibition ELISA assay
3 | 180C 9D5: anti-naltrexone monoclonal antibody generated using naltrexone-3-Val-mcKLH; heavy chain SEQ ID NO:121, light chain SEQ ID NO:125 (antibody, Amino acid sequence for heavy chain of monoclonal antibody 180C 9D5; Amino acid sequence for light chain of monoclonal antibody 180C 9D5) heavy: MGWNYIFLFLIATVTDVHSQVRLQQPGTDLVKPGASVKLSCRASGFTFTNYWMNWVKQRPGQGLEWIGEINTNGGTKYNENFKNKATLTVDQSSSTAYIQLSGLTSEDSAVYFCNYFDGNYDYWGQGTLTVSS light: MEFHTQVFVFVFLWLSGVDGDIVMTQSQKFMSTPVGDRVSLTCRASQNVGTAVAWYQQKPGQPPKLLIYSTSNRFTGVPSRFTGSGSGTDFTLTITNMQSEDLADYFCHQYSSYPYTFGGGTKLEIK | good specificity for naltrexone
4 | 180C 9G8: anti-naltrexone monoclonal antibody generated using naltrexone-3-Val-mcKLH; heavy chain SEQ ID NO:141, light chain SEQ ID NO:145 (antibody, V domains shown, Amino acid sequence of heavy chain of monoclonal antibody 180C 9G8; Amino acid sequence of light chain of monoclonal antibody 180C 9G8) VH: MYLGLNCVIIVFLLKGVQSEVKLEESGGGLVQPGGSMKLSCAASGFTFSDAWMDWVRQSPEKGLEWVAEIRNKANNHATYYAESVKGRFTISRDDSNSRMFLQMDSLRAEDTGIYYCIGGIPRYFDVGAGTTVTVSS VL: MESQTQVFVYMLLWLSGVDGDIVMTQSQKFMSTSVGDRVSITCKASQNVRTYVAWYQQKPGQSPKALLYSASYRYSGVPDRFIGSGSGTQFTLTISDVQSEDLAEYFCHQYNSYPLTFGGGTKLEIQ | good specificity for naltrexone
5 | 180B 13F7: anti-naltrexone monoclonal antibody generated using naltrexone-3-Val-mcKLH; heavy chain SEQ ID NO:41, light chain SEQ ID NO:45 (antibody, Amino Acid sequence of heavy chain of monoclonal antibody 180B 13F7; Amino Acid sequence of light chain of monoclonal antibody 180B 13F7) heavy: MRVLILVYLLTALPGILSDIQLQESGPGLVKPSQTVSLTCTVTGYSITYVNHWWNWIRQVSGNKLEWIGYISSSGSIDSNPSLKSRIAITRDTSKNQLFLQLKSVTTEDVGTYYCVSEDSSGYHYWGGTTLTVSS light: MKLPVRLLVLMFWIPASSSDVVMTQTPLSLPVSLGDQASISCRSSQSLVFSNGKTYFHWYLQKPGQSPKLLIYRVSNRFSGVPDRFSGSGSGTDFTLKISRVEAEDLGVYFCSQSTHVPWTFGGGTKLEIK | good specificity for naltrexone
6 | 180C 1F8: anti-naltrexone monoclonal antibody generated using naltrexone-3-Val-mcKLH; heavy chain SEQ ID NO:61, light chain SEQ ID NO:65 (antibody, Amino Acid sequence of heavy chain of monoclonal antibody 180C 1F8; Amino Acid sequence of light chain of monoclonal antibody 180C 1F8) heavy: MEWSWIFLFFLSVTTGVHSQVQLQQSDAELVKPGTSVKISCKASGFTFTDHAIHWVKQRPEQGLEWIGYISPGNGDIKYNEKFKGKATLTADKSSSTAYMQLNSLTSEDSAVYFCDYYNGRVDYWGQTTLTVSS light: MEFHTQVFVFVFLWLSGVDGDIVMTQSQKFMTTSVGDRVSITCKASQNVGSAVAWYQQKPGQSPKLLIYSASNRFTGVPDRFTGSGSRTDFTLTISNMQSDDLADYFCHQYRSYPYTFGGGTKLEIK | good specificity for naltrexone
7 | 180C 7G8: anti-naltrexone monoclonal antibody generated using naltrexone-3-Val-mcKLH; heavy chain SEQ ID NO:81, light chain SEQ ID NO:85 (antibody, V domains shown, Amino acid sequence of heavy chain of monoclonal antibody 180C 7G8; Amino acid sequence of light chain of monoclonal antibody 180C 7G8) VH: MYLGLNCVIIVFLLKGVQSEVKLEESGGGLVQPGGSVKLSCAVFGFTFSDPWMDWVRQSPEKGLEWVAEIRNKAYNHATYYAESVKGRFTISRDDSNSRVSLQMNNLRAEDTGVYYCTAGDSSHSYWQGTLVTVSA VL: MEFQTQVFVFVLLWLSGVDGDIVMTQSQKFMSTSVGDRVSIICKASQNVRTAVAWYQQKPGQSPKTLIYLASNRHTGVPDRFTGSGSGTDFTLTISNVQAEDLADYFCLQHWNYPLTFGGGTKLEIK | good specificity for naltrexone
8 | 180C 8A10: anti-naltrexone monoclonal antibody generated using naltrexone-3-Val-mcKLH; heavy chain SEQ ID NO:101, light chain SEQ ID NO:105 (antibody, Amino acid sequence of heavy chain of monoclonal antibody 180C 8A10; Amino acid sequence of light chain of monoclonal antibody 180C 8A10) heavy: MGWSYIFLFLVATVTDVHSQVQLQQPGAELVKPGASVKLSCKASGYTFTNYWINWVKQRPGQGLEWLGEINPSNSNTKYNEKFKSRATLTADKSSSTAYMQLHSLTSEDSAVYYCNYYDGGHDSWGQTTLTVSS light: MEFHTQVFVFVFLWLSGVDGDIVMTQSQKFMSTTLGDRVSIICKASQNVGTAVAWYQQKPGQSPKLLIYSTSNRYTGVPDRFTGSGSGTDFSLTISSVQSEDLADYFCHQYSSYLYTFGGGTRLEIK | good specificity for naltrexone
